Reference: IntAct's records for PubMed 31515488

B1: Inactive peptidyl-prolyl cis-trans isomerase FKBP6 (Homo sapiens), O75344 (parent)
chain: MGGSALNQGVLEGDDAPGQSLYERLSQRMLDISGDRGVLKDVIREGAGDLVAPDASVLVKYSGYLEHMDRPFDSNYFRKTPRLMKLGEDITLWGMELGLLSMRRGELARFLFKPNYAYGTLGCPPLIPPNTTVLFEIELLDFLDCAESDKFCALSAEQQDQFPLQKVLKVAATEREFGNYLFRQNRFYDAKVRYKRALLLLRRRSAPPEEQHLVEAAKLPVLLNLSFTYLKLDRPTIALCYGEQALIIDQKNAKALFRCGQACLLLTEYQKARDFLVRAQKEQPFNHDINNELKKLASCYRDYVDKEKEMWHRMFAPCGDGSTAGES
partner: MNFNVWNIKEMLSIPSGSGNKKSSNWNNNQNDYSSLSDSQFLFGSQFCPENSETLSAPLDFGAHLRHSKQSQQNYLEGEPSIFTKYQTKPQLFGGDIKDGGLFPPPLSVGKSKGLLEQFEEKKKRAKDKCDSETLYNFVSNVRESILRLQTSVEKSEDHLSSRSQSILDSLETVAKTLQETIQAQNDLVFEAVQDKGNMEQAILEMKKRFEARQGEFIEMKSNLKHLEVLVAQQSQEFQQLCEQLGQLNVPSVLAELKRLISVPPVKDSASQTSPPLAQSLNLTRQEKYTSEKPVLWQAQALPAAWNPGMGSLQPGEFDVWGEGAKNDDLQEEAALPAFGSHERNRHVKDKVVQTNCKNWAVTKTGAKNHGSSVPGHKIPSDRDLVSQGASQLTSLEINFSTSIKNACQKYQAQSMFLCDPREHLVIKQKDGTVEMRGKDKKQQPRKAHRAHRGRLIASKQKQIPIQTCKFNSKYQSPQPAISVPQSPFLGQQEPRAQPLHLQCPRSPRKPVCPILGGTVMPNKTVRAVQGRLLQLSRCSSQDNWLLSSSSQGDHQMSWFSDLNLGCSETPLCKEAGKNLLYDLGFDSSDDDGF
B2: DNA topoisomerase 3-beta-1 (Homo sapiens), O95985 (parent)
chain: MKTVLMVAEKPSLAQSIAKILSRGSLSSHKGLNGACSVHEYTGTFAGQPVRFKMTSVCGHVMTLDFLGKYNKWDKVDPAELFSQAPTEKKEANPKLNMVKFLQVEGRGCDYIVLWLDCDKEGENICFEVLDAVLPVMNKAHGGEKTVFRARFSSITDTDICNAMACLGEPDHNEALSVDARQELDLRIGCAFTRFQTKYFQGKYGDLDSSLISFGPCQTPTLGFCVERHDKIQSFKPETYWVLQAKVNTDKDRSLLLDWDRVRVFDREIAQMFLNMTKLEKEAQVEATSRKEKAKQRPLALNTVEMLRVASSSLGMGPQHAMQTAERLYTQGYISYPRTETTHYPENFDLKGSLRQQANHPYWADTVKRLLAEGINRPRKGHDAGDHPPITPMKSATEAELGGDAWRLYEYITRHFIATVSHDCKYLQSTISFRIGPELFTCSGKTVLSPGFTEVMPWQSVPLEESLPTCQRGDAFPVGEVKMLEKQTNPPDYLTEAELITLMEKHGIGTDASIPVHINNICQRNYVTVESGRRLKPTNLGIVLVHGYYKIDAELVLPTIRSAVEKQLNLIAQGKADYRQVLGHTLDVFKRKFHYFVDSIAGMDELMEVSFSPLAATGKPLSRCGKCHRFMKYIQAKPSRLHCSHCDETYTLPQNGTIKLYKELRCPLDDFELVLWSSGSRGKSYPLCPYCYNHPPFRDMKKGMGCNECTHPSCQHSLSMLGIGQCVECESGVLVLDPTSGPKWKVACNKCNVVAHCFENAHRVRVSADTCSVCEAALLDVDFNKAKSPLPGDETQHMGCVFCDPVFQELVELKHAASCHPMHRGGPGRRQGRGRGRARRPPGKPNPRRPKDKMSALAAYFV
B3: Zinc finger protein Aiolos (Homo sapiens), Q9UKT9 (parent)
chain: MEDIQTNAELKSTQEQSVPAESAAVLNDYSLTKSHEMENVDSGEGPANEDEDIGDDSMKVKDEYSERDENVLKSEPMGNAEEPEIPYSYSREYNEYENIKLERHVVSFDSSRPTSGKMNCDVCGLSCISFNVLMVHKRSHTGERPFQCNQCGASFTQKGNLLRHIKLHTGEKPFKCHLCNYACQRRDALTGHLRTHSVEKPYKCEFCGRSYKQRSSLEEHKERCRTFLQSTDPGDTASAEARHIKAEMGSERALVLDRLASNVAKRKSSMPQKFIGEKRHCFDVNYNSSYMYEKESELIQTRMMDQAINNAISYLGAEALRPLVQTPPAPTSEMVPVISSMYPIALTRAEMSNGAPQELEKKSIHLPEKSVPSERGLSPNNSGHDSTDTDSNHEERQNHIYQQNHMVLSRARNGMPLLKEVPRSYELLKPPPICPRDSVKVINKEGEVMDVYRCDHCRVLFLDYVMFTIHMGCHGFRDPFECNMCGYRSHDRYEFSSHIARGEHRALLK
partner: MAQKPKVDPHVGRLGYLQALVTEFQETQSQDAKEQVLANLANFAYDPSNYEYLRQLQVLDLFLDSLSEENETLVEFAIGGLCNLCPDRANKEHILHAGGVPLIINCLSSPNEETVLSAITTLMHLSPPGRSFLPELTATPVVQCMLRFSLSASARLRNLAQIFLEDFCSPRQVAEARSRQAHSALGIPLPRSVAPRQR
B4: Zyxin (Homo sapiens), Q15942 (parent)
chain: MAAPRPSPAISVSVSAPAFYAPQKKFGPVVAPKPKVNPFRPGDSEPPPAPGAQRAQMGRVGEIPPPPPEDFPLPPPPLAGDGDDAEGALGGAFPPPPPPIEESFPPAPLEEEIFPSPPPPPEEEGGPEAPIPPPPQPREKVSSIDLEIDSLSSLLDDMTKNDPFKARVSSGYVPPPVATPFSSKSSTKPAAGGTAPLPPWKSPSSSQPLPQVPAPAQSQTQFHVQPQPQPKPQVQLHVQSQTQPVSLANTQPRGPPASSPAPAPKFSPVTPKFTPVASKFSPGAPGGSGSQPNQKLGHPEALSAGTGSPQPPSFTYAQQREKPRVQEKQHPVPPPAQNQNQVRSPGAPGPLTLKEVEELEQLTQQLMQDMEHPQRQNVAVNELCGRCHQPLARAQPAVRALGQLFHIACFTCHQCAQQLQGQQFYSLEGAPYCEGCYTDTLEKCNTCGEPITDRMLRATGKAYHPHCFTCVVCARPLEGTSFIVDQANRPHCVPDYHKQYAPRCSVCSEPIMPEPGRDETVRVVALDKNFHMKCYKCEDCGKPLSIEADDNGCFPLDGHVLCRKCHTARAQT
B5: Transcription factor 12 (Homo sapiens), Q99081 (parent)
chain: MNPQQQRMAAIGTDKELSDLLDFSAMFSPPVNSGKTRPTTLGSSQFSGSGIDERGGTTSWGTSGQPSPSYDSSRGFTDSPHYSDHLNDSRLGAHEGLSPTPFMNSNLMGKTSERGSFSLYSRDTGLPGCQSSLLRQDLGLGSPAQLSSSGKPGTAYYSFSATSSRRRPLHDSAALDPLQAKKVRKVPPGLPSSVYAPSPNSDDFNRESPSYPSPKPPTSMFASTFFMQDGTHNSSDLWSSSNGMSQPGFGGILGTSTSHMSQSSSYGNLHSHDRLSYPPHSVSPTDINTSLPPMSSFHRGSTSSSPYVAASHTPPINGSDSILGTRGNAAGSSQTGDALGKALASIYSPDHTSSSFPSNPSTPVGSPSPLTGTSQWPRPGGQAPSSPSYENSLHSLQSRMEDRLDRLDDAIHVLRNHAVGPSTSLPAGHSDIHSLLGPSHNAPIGSLNSNYGGSSLVASSRSASMVGTHREDSVSLNGNHSVLSSTVTTSSTDLNHKTQENYRGGLQSQSGTVVTTEIKTENKEKDENLHEPPSSDDMKSDDESSQKDIKVSSRGRTSSTNEDEDLNPEQKIEREKERRMANNARERLRVRDINEAFKELGRMCQLHLKSEKPQTKLLILHQAVAVILSLEQQVRERNLNPKAACLKRREEEKVSAVSAEPPTTLPGTHPGLSETTNPMGHM
partner: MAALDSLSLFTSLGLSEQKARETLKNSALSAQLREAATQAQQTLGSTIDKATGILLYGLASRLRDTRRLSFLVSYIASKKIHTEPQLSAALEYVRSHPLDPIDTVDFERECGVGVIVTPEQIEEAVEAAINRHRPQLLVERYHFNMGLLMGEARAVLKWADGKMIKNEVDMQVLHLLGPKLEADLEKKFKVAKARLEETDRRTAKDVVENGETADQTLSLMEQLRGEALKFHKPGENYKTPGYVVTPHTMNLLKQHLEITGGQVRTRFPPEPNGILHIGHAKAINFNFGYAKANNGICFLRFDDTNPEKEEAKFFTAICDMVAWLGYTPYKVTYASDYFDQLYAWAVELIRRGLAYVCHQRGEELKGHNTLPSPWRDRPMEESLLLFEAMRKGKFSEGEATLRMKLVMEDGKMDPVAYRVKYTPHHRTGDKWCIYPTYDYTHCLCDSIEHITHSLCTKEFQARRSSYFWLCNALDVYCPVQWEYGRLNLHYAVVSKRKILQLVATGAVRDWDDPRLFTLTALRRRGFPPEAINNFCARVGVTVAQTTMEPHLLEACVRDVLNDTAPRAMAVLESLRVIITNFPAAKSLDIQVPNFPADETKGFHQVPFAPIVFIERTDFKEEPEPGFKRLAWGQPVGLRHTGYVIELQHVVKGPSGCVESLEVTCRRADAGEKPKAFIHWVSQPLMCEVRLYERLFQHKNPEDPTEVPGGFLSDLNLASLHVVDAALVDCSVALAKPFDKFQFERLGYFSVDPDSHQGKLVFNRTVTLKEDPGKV

Variants of: B1
Details: with iho1_human IHO1, Q8IYA8

Variant | effect of a mutation on the interaction
R175Q | with no effect
H287N | with no effect

Variants of: B2
Details: with trim1_human MID2, Q9UJV3
Chain of trim1_human MID2, Q9UJV3 (Q9UJV3 whole entry): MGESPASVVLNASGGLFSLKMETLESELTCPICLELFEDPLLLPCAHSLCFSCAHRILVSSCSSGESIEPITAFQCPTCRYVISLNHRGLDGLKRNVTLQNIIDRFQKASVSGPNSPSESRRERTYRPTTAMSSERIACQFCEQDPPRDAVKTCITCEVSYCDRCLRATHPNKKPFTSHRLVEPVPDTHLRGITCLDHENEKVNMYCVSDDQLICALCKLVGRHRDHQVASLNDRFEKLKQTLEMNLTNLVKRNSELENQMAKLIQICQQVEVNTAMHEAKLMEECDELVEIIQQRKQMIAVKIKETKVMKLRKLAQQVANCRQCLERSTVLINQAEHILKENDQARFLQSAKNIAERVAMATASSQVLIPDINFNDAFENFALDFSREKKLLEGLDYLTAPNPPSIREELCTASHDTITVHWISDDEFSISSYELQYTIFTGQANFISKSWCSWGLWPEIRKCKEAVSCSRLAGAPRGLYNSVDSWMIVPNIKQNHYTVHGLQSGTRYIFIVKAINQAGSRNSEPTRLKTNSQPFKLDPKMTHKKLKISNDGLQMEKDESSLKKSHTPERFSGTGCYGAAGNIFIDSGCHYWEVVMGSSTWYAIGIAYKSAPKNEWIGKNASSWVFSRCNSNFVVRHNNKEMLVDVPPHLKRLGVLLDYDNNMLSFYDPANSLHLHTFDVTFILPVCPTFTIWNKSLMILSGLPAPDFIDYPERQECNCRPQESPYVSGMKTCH

Variant | effect of a mutation on the interaction
R267W | disrupting interaction strength

Variants of: B2
Details: with tri41_human TRIM41, Q8WV44

Variant | effect of a mutation on the interaction
R267W | disrupting interaction strength

Variants of: B3
Details: with armc7_human ARMC7, Q9H6L4

Variant | effect of a mutation on the interaction
A24V | with no effect
N119D | with no effect

Variants of: B4
Details: with pf21a_human PHF21A

Variant | effect of a mutation on the interaction
R489W | with no effect
R563Q | with no effect

Variants of: B5
Details: with syq_human QARS1, P47897

Variant | effect of a mutation on the interaction
I11M | with no effect
G300S | with no effect
A458V | with no effect
